Results published in patent publication US20160194357A1, “Novel NPR-B Agonists” (published 2016).
Bridges are numbered along the chain shown (N, C = ends). Where no end group is shown, it is not given here.

T1: natriuretic peptide receptor -B (human)
T1 chain: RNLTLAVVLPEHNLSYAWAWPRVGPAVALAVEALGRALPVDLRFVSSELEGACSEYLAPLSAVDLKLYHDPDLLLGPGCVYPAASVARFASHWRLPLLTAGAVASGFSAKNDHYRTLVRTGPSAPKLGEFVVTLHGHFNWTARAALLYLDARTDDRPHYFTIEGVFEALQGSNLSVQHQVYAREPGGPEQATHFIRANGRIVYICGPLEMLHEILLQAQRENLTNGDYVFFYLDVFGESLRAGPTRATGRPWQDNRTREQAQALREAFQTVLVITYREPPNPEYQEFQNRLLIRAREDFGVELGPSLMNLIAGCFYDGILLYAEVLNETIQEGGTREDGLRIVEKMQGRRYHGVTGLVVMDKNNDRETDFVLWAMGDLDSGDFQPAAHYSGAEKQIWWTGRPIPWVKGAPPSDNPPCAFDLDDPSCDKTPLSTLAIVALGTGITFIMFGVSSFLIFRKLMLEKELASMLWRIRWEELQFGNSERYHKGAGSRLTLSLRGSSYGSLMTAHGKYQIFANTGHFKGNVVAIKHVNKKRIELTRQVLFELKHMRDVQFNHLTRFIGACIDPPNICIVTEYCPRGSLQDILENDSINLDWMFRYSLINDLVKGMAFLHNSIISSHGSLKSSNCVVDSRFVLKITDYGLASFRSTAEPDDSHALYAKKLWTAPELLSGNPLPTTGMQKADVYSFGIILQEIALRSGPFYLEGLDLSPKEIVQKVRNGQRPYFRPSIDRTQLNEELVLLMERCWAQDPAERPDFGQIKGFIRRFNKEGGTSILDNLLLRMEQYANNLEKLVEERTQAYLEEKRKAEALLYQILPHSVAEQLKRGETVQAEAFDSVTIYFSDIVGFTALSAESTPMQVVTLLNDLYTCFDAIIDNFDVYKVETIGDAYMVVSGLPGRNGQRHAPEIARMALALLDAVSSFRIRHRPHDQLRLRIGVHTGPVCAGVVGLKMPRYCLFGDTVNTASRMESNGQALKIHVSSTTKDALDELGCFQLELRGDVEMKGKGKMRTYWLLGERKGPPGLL

T2: natriuretic peptide receptor -A (Homo sapiens)
T2 chain: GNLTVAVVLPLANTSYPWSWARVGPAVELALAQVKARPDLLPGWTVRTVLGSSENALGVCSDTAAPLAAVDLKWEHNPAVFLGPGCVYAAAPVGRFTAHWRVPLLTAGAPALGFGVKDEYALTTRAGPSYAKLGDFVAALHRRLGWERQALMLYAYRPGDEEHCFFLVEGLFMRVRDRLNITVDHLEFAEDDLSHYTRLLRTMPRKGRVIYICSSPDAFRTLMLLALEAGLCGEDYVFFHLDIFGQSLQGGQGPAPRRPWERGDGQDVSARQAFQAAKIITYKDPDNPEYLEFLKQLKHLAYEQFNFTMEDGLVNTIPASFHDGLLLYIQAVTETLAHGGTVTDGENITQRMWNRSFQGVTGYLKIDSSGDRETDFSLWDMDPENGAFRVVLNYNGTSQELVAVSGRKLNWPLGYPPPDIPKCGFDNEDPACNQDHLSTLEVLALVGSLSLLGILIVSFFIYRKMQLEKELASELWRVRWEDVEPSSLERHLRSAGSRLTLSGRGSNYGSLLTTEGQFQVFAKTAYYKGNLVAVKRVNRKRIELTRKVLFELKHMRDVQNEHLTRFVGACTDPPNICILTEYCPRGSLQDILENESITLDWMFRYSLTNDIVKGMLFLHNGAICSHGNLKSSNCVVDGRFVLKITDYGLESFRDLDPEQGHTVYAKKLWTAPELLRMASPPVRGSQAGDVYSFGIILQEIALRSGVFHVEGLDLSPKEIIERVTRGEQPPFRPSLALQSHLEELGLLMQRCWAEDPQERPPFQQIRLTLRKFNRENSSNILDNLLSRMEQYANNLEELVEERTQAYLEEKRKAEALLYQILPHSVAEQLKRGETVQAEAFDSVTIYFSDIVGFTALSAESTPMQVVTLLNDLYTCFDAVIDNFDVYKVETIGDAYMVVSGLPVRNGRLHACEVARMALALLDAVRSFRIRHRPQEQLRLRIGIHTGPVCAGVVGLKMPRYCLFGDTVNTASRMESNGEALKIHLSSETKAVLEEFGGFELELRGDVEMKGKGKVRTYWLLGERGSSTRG


Key:
[1] = target: T1, natriuretic peptide receptor -B; experiment: cell-based or functional assay
[2] = target: T2, natriuretic peptide receptor -A; experiment: cell-based or functional assay

Binder | cyclic GMP production in GTM-3 cells, EC50 [1] | cyclic GMP production in GTM-3 cells, Emax (maximum activation) [1] | cyclic GMP production in NPR-A transfected 293-T cells, EC50 [2]
SLRRSSCFGGRMDRIGAQSGLGCNSFRY (ligand, disulfide 7-23) [atrial natriuretic peptide] | 1.63 µM | 15% | –
MCHFGGRMDRISCYR [mini-ANP] | > 45 µM | 0% | 1.54 µM
GLSKGCFGLKLDRIGSMSGLGC (ligand, disulfide 6-22) [C-type natriuretic peptide] | 0.0388 µM | 100% | 1.6 µM
